T1: LRRC15 on the surface of LRRC15+ cells (SAOS-2, U87MG) (UniProt Q8TF66 22-581, limits assumed)
T1 sequence (looked up): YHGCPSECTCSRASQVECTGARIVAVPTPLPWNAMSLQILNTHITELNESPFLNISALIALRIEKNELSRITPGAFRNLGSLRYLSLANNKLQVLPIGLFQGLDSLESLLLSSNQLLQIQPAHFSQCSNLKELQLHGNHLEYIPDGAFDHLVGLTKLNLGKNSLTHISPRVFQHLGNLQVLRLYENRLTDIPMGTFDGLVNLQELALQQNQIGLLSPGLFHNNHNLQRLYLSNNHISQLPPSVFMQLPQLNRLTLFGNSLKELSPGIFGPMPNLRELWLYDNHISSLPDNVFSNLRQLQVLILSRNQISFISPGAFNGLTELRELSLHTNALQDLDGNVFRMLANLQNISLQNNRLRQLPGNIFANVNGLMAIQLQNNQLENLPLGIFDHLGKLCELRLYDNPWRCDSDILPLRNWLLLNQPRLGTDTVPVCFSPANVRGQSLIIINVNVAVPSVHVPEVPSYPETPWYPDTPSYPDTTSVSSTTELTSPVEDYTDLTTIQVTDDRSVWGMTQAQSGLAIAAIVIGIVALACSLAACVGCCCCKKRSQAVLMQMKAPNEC

T2: Human LRRC15 Protein, His Tag (Acro Biosystems) (human, UniProt Q8TF66 22-538, limits assumed)
T2 construct: not shown: His tag
T2 sequence (looked up): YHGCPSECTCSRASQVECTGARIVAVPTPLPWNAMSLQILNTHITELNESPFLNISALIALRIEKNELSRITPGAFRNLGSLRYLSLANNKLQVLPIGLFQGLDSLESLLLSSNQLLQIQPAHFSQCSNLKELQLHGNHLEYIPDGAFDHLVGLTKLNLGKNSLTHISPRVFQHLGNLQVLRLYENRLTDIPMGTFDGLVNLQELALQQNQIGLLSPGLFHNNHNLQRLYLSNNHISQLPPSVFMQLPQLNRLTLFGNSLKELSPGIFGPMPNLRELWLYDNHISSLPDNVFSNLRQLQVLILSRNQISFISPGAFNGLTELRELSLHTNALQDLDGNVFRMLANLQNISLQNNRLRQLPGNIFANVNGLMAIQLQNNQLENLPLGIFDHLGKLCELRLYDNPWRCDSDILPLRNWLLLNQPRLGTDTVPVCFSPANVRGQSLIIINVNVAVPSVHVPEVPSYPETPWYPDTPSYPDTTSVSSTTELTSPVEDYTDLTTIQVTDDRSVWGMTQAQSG


Key:
[1] = molecular target: T1, LRRC15 on the surface of LRRC15+ cells …; experiment: cell-based or functional assay
[2] = molecular target: T1, LRRC15 on the surface of LRRC15+ cells …; experiment: cell-based or functional assay; remark: listed apart in the source
[3] = molecular target: T1, LRRC15 on the surface of LRRC15+ cells …; experiment: cell-based or functional assay; remark: listed apart in the source
[4] = molecular target: T2, Human LRRC15 Protein, His Tag (Acro …); experiment: BLI; dissociation pH 7.4 black, pH 5.4 grey [2/2); D00026 FIG. 6B (2/2]
[5] = molecular target: T1, LRRC15 on the surface of LRRC15+ cells …; experiment: cell-based or functional assay; remark: listed apart in the source

Row | Internalization in SAOS-2 cells (10 nM, 24 hours), FOB = fold over background (IgG control) [1] | Internalization in SAOS-2 cells (10 nM, 24 hours), FOS = fold over samrotamab [1] [fold over samrotamab] | Internalization in U87MG cells (10 nM, 24 hours), FOB = fold over background (IgG control) [2] | Internalization in U87MG cells (10 nM, 24 hours), FOS = fold over samrotamab [2] [fold over samrotamab] | binding result [4] | Binder | Cytotoxicity against SAOS-2 cells, Fold over MYT5438 (mAb complexed with MMAF-conjugated secondary antibody, CTG assay) [3] [fold over MYT5438] | 20 nM Efficacy (cytotoxicity of candidates against SAOS-2 cells) [5]
1 | 2.94 fold over background (IgG control) | 1.2 | 3.13 fold over background (IgG control) | 2.49 | – | MYT8391 (antibody, V domains shown) VH: EVQLVESGGGLVQPGGSLRLSCTASGLDFRRTNYICWVRQAPGKGLEWVGCIYIADVVHYYASWAKGRFTFSRDTSKNTVYLQMNSLRAEDTAVYYCARGADGGFHYGMDLWGQGTLVTVSS VL: EIVMTQSPSTLSASVGDRVIITCQASQSIGNYLSWYQQKPGKAPKRLIYSASTLPSGVPSRFSGSGSGAEFTLTISSLQPDDFATYYCQNNYWLAGYGHPFGQGTKLTVL | 1.14 | –
2 | 2.71 fold over background (IgG control) | 1.05 | 3.05 fold over background (IgG control) | 2.39 | – | MYT8416 (antibody, V domains shown) VH: EVQLVESGGGLVQPGGSLRLSCTASGLDFRRTNYICWVRQAPGKGLEWVGCIYIADVVHYYASWAKGRFTFSRDTSKNTVYLQMNSLRAEDTAVYYCARGADGGFVYGMDLWGQGTLVTVSS VL: EIVMTQSPSTLSASVGDRVIITCQASQSIGNYLSWYQQKPGKAPKRLIYSASTLPSGVPSRFSGSGSGAEFTLTISSLQPDDFATYYCQNNYHLAGYGHPFGQGTKLTVL | 1.13 | –
3 | 3.15 fold over background (IgG control) | 1.32 | 3.52 fold over background (IgG control) | 2.94 | – | MYT8094 (antibody, IgG1, V domains shown) VH: EVQLVESGGGLVQPGGSLRLSCTASGFSFSSSHWICWVRQAPGKGLEWVGCIYAGSIGSTYYASWAKGRFTISRDTSKNTVYLQMNSLRAEDTAVYYCARAPNDIYNYYFNLWGQGTLVTVSS VL: EIVMTQSPSTLSASVGDRVIITCQASENIYNYLAWYQQKPGKAPKLLIYYASTLASGVPSRFSGSGSGAEFTLTISSLQPDDFATYYCQSGYVSKSSTFGQGTKLTVL | 1.45 | –
4 | – | – | – | – | binds | MYT9725 (antibody, V domains shown, also called hu29F1 VH N111E) VH: EVQLVESGGGLVQPGGSLRLSCTASGFSFSSSHWICWVRQAPGKGLEWVGCIYAGSIGSTYYASWAKGRFTISRDTSKNTVYLQMNSLRAEDTAVYYCARAPNDIYNYYFELWGQGTLVTVSS VL: EIVMTQSPSTLSASVGDRVIITCQASENIYNYLAWYQQKPGKAPKLLIYYASTLASGVPSRFSGSGSGAEFTLTISSLQPDDFATYYCQSGYVSKSSTFGQGTKLTVL | – | –
5 | – | – | – | – | binds | MYT9722 (antibody, V domains shown, also called hu29F1 VH Y108E) VH: EVQLVESGGGLVQPGGSLRLSCTASGFSFSSSHWICWVRQAPGKGLEWVGCIYAGSIGSTYYASWAKGRFTISRDTSKNTVYLQMNSLRAEDTAVYYCARAPNDIYNEYFNLWGQGTLVTVSS VL: EIVMTQSPSTLSASVGDRVIITCQASENIYNYLAWYQQKPGKAPKLLIYYASTLASGVPSRFSGSGSGAEFTLTISSLQPDDFATYYCQSGYVSKSSTFGQGTKLTVL | – | –
6 | – | – | – | – | binds | MYT9716 (antibody, V domains shown, also called hu29F1 VH P102E) VH: EVQLVESGGGLVQPGGSLRLSCTASGFSFSSSHWICWVRQAPGKGLEWVGCIYAGSIGSTYYASWAKGRFTISRDTSKNTVYLQMNSLRAEDTAVYYCARAENDIYNYYFNLWGQGTLVTVSS VL: EIVMTQSPSTLSASVGDRVIITCQASENIYNYLAWYQQKPGKAPKLLIYYASTLASGVPSRFSGSGSGAEFTLTISSLQPDDFATYYCQSGYVSKSSTFGQGTKLTVL | – | –
7 | – | – | – | – | – | MYT9731 (antibody, V domains shown) VH: EVQLVESGGGLVQPGGSLRLSCTASGFSFSSSHWICWVRQAPGKGLEWVGCIYAGSIGSTYYASWAKGRFTISRDTSKNTVYLQMNSLRAEDTAVYYCARAPNDIYNYYFNLWGQGTLVTVSS VL: EIVMTQSPSTLSASVGDRVIITCQASEEIYNYLAWYQQKPGKAPKLLIYYASTLASGVPSRFSGSGSGAEFTLTISSLQPDDFATYYCQSGYVSKSSTFGQGTKLTVL | 1.05 | –
8 | – | – | – | – | binds | MYT9724 (antibody, V domains shown, also called hu29F1 VH F110E) VH: EVQLVESGGGLVQPGGSLRLSCTASGFSFSSSHWICWVRQAPGKGLEWVGCIYAGSIGSTYYASWAKGRFTISRDTSKNTVYLQMNSLRAEDTAVYYCARAPNDIYNYYENLWGQGTLVTVSS VL: EIVMTQSPSTLSASVGDRVIITCQASENIYNYLAWYQQKPGKAPKLLIYYASTLASGVPSRFSGSGSGAEFTLTISSLQPDDFATYYCQSGYVSKSSTFGQGTKLTVL | – | –
9 | 3.02 fold over background (IgG control) | 1.24 | 3.42 fold over background (IgG control) | 2.82 | – | MYT9521 (antibody, V domains shown) VH: EVQLVESGGGLVQPGGSLRLSCTASGFSFSSSHWICWVRQAPGKGLEWVGCIYAGSIGSTYYASWAKGRFTISRDTSKNTVYLQMNSLRAEDTAVYYCARAPNDIYNYYFNLWGQGTLVTVSS VL: EIVMTQSPSTLSASVGDRVIITCQASENIYNYLAWYQQKPGKAPKLLIYYASDLASGVPSRFSGSGSGAEFTLTISSLQPDDFATYYCQSGYVSKSSTFGQGTKLTVL | 1.49 | –
10 | 2.68 fold over background (IgG control) | 1.03 | 2.65 fold over background (IgG control) | 1.93 | – | MYT8500 (antibody, V domains shown) VH: EVQLVESGGGLVQPGGSLRLSCTASGFSFSGSYWICWVRQAPGKGLEWVGCINGGSHDITYYASWAKGRFTISRDTSKNTVYLQKTSLRAEDTAVYYCASDTSYTAYGNFYFNLWGQGTLVTVSS VL: EIVMTQSPSPLSASVGDRVIITCQSSQSVLNNNWLAWYQQKPGKAPKLLIYDASSLASGVPSRFSGSGSGAEFTLTISSLQPDDFATYYCQGEFSCGSADCNAFGQGTKLTVL | 1.06 | –
11 | – | – | – | – | – | MYT9776-c-ADC (antibody, human IgG1, kappa, V domains shown, vcMMAE conjugated to the cysteine at position 205 of the light chain) VH: EVQLVESGGGLVQPGGSLRLSCTASGFSFSGHYWICWVRQAPGKGLEWVGCIHGGSHDITYYASWAKGRFTISRDTSKNTVYLQKTSLRAEDTAVYYCASDTSYTAYGNFYFNLWGQGTLVTVSS VL: EIVMTQSPSPLSASVGDRVIITCQSSQSVLNNNWLAWYQQKPGKAPKLLIYDASSLASGVPSRFSGSGSGAEFTLTISSLQPDDFATYYCQGEFSCGSADCNAFGQGTKLEIKR | – | 66.3
12 | – | – | – | – | – | MYT8483-c-ADC (antibody, human IgG1, kappa, V domains shown, vcMMAE conjugated to the cysteine at position 205 of the light chain) VH: EVQLVESGGGLVQPGGSLRLSCTASGFSFSGSYWICWVRQAPGKGLEWVGCINGGSLDITYYASWAKGRFTISRDTSKNTVYLQKTSLRAEDTAVYYCASDTSYTAYGNFYFNLWGQGTLVTVSS VL: EIVMTQSPSPLSASVGDRVIITCQSSQSVLNNNWLAWYQQKPGKAPKLLIYDASSLASGVPSRFSGSGSGAEFTLTISSLQPDDFATYYCQGEFSCGSADCNAFGQGTKLTVLR | – | 29.4
